The results in this text go back to publication PMC2766932 (Biochemistry, 2009).

Where a chain is given by its changes, count along the chain named. Names and notes keep the numbering of the source.

Some targets named below: MBP-3 D260A; MBP-3 S246D; MBP-3 S279A; MBP-3 S287A; MBP-3 S287D.
Holding throughout (assay): pull-down
Another test deals with T1, MBP-3 Q243A.
T1 chain: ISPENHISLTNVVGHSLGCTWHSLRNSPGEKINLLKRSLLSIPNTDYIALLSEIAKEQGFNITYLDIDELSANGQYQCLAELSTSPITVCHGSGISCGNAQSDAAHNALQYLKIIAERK

In the next test the target is T2, MBP-3 D262A.
T2 chain: T1 chain with A49Q, D68A

Regarding “PKR (K296R)-FLAG (from UniProt P19525 1-551) (enzyme)”, the PKR bound, percent of wt MBP-3 with MBP-3 D260A came to 63%; in the test with MBP-3 S246D, 100%; in the test with MBP-3 S279A, 23%; in the test with MBP-3 S287A it was 59%; with MBP-3 S287D, 95%.

B1: PKR (K296R)-FLAG (enzyme, UniProt P19525 1-551, looked up)
chain: MAGDLSAGFFMEELNTYRQKQGVVLKYQELPNSGPPHDRRFTFQVIIDGREFPEGEGRSKKEAKNAAAKLAVEILNKEKKAVSPLLLTTTNSSEGLSMGNYIGLINRIAQKKRLTVNYEQCASGVHGPEGFHYKCKMGQKEYSIGTGSTKQEAKQLAAKLAYLQILSEETSVKSDYLSSGSFATTCESQSNSLVTSTLASESSSEGDFSADTSEINSNSDSLNSSSLLMNGLRNNQRKAKRSLAPRFDLPDMKETKYTVDKRFGMDFKEIELIGSGGFGQVFKAKHRIDGKTYVIRRVKYNNEKAEREVKALAKLDHVNIVHYNGCWDGFDYDPETSDDSLESSDYDPENSKNSSRSKTKCLFIQMEFCDKGTLEQWIEKRRGEKLDKVLALELFEQITKGVDYIHSKKLIHRDLKPSNIFLVDTKQVKIGDFGLVTSLKNDGKRTRSKGTLRYMSPEQISSQDYGKEVDLYALGLILAELLHVCDTAFETSKFFTDLRDGIISDIFDKKEKTLLQKLLSKKPEDRPNTSEILRTLTVWKKSPEKNERHTC
As for B1, the “PKR bound, percent of wt MBP-3” value with MBP-3 Q243A was 9%; with MBP-3 D262A it was 2%.
